Data set [1] concerns the target T1, mbr-1 (T01C1.2) (Caenorhabditis elegans) (UniProt G5EGQ5).
T1 sequence: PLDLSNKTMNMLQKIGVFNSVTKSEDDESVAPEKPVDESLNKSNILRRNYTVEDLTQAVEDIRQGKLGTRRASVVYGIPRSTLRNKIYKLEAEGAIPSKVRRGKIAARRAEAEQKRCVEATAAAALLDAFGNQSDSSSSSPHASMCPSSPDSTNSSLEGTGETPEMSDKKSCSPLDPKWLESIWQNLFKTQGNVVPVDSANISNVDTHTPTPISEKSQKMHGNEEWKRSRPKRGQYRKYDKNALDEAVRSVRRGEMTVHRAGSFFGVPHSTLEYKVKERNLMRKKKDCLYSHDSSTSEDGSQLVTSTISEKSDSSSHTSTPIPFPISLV

Data set [2] addresses T2, skn-1 (T19E7.2) (Caenorhabditis elegans) (UniProt P34707).
T2 sequence: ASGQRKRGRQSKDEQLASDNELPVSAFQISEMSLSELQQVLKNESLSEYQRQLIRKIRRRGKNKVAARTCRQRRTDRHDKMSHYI

Data set [3] deals with T3, hlh-12 (C28C12.8) (Caenorhabditis elegans) (UniProt Q18277).
T3 sequence: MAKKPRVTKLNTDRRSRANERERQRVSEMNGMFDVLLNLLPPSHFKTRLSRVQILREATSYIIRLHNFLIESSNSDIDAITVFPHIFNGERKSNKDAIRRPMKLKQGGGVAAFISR

The target in data set [4] is T4, nhr-70 (Y51A2D.17) (Caenorhabditis elegans) (UniProt G5EEL3).
T4 sequence: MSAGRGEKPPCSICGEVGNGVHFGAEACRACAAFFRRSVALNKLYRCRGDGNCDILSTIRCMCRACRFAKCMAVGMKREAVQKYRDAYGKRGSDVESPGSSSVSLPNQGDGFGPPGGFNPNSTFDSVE

Data set [5] deals with T5, nhr-42 (C33G8.6) (Caenorhabditis elegans) (UniProt O76828).
T5 sequence: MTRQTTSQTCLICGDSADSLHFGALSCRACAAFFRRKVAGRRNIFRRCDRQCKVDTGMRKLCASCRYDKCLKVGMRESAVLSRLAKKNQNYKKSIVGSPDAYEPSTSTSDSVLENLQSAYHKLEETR

Data set [6] addresses T6, nhr-232 (Y22F5A.1) (Caenorhabditis elegans) (UniProt A0A486WVR6).
T6 sequence: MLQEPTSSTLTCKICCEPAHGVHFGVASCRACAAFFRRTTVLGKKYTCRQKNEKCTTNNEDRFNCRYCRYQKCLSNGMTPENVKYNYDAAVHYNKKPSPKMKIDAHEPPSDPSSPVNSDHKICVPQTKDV

Data set [7] addresses T7, nhr-142 (F44E7.8) (Caenorhabditis elegans) (UniProt J7SF93).
T7 sequence: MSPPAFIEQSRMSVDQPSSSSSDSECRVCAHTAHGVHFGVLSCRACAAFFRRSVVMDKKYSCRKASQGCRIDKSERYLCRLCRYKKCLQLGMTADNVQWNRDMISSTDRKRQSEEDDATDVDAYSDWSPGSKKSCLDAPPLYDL

For data set [8], the target named is T8, odr-7 (T18D3.2) (Caenorhabditis elegans) (UniProt P41933).
T8 sequence: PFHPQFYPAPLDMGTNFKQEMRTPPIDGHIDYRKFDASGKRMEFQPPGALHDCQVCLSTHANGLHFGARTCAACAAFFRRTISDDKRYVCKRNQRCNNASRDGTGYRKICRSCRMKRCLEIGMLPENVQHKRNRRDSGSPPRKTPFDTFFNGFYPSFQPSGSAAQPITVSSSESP

The target of data set [9] is T9, nhr-66 (T09A12.4) (Caenorhabditis elegans) (UniProt H2KYJ8).
T9 sequence: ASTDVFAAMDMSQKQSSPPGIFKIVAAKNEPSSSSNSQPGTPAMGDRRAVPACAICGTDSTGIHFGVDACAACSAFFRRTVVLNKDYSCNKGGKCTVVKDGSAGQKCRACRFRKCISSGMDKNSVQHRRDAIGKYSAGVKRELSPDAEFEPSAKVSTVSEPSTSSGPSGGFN

In data set [1], “AGGCCCCT (double strand) [8-mer AGGCCCCT]” showed a binding signal (PBM E-score (-0.5 to 0.5)) of 0.491. “GATGACTA (double strand) [8-mer GATGACTA]” showed a binding signal (PBM E-score (-0.5 to 0.5)) in data set [2] of 0.489.

In turn, “AGGGGCCA (double strand) [8-mer AGGGGCCA]” gave a binding signal (PBM E-score (-0.5 to 0.5)) in data set [1] of 0.492. “ATGACAAT (double strand) [8-mer ATGACAAT]” returned a binding signal (PBM E-score (-0.5 to 0.5)) in data set [2] of 0.495. As to “AACAGATG (double strand) [8-mer AACAGATG]”, the binding signal (PBM E-score (-0.5 to 0.5)) in data set [3] is 0.468. Regarding “GGCTACAC (double strand) [8-mer GGCTACAC]”, the binding signal (PBM E-score (-0.5 to 0.5)) in data set [4] was 0.487. Regarding “GAGGGGCC (double strand) [8-mer GAGGGGCC]”, the binding signal (PBM E-score (-0.5 to 0.5)) in [1] is 0.489. In data set [3], “ACAGATGG (double strand) [8-mer ACAGATGG]” displayed a binding signal (PBM E-score (-0.5 to 0.5)) of 0.478.

Consider “GTCATCAC (double strand) [8-mer GTCATCAC]”, for which, in [2], the binding signal (PBM E-score (-0.5 to 0.5)) was found to be 0.492.

The sequence “ATGTCATC (double strand) [8-mer ATGTCATC]” registered a binding signal (PBM E-score (-0.5 to 0.5)) in data set [2] of 0.494.

In data set [4], “GCTACAAC (double strand) [8-mer GCTACAAC]” yielded a binding signal (PBM E-score (-0.5 to 0.5)) of 0.483. Consider “GGGGCCAA (double strand) [8-mer GGGGCCAA]”, for which the binding signal (PBM E-score (-0.5 to 0.5)) in data set [1] is 0.488. Take “ACAGCTGG (double strand) [8-mer ACAGCTGG]”: in [3], the binding signal (PBM E-score (-0.5 to 0.5)) is 0.481. In turn, “AGGGGGGC (double strand) [8-mer AGGGGGGC]” had a binding signal (PBM E-score (-0.5 to 0.5)) in [1] of 0.491. For “GATGATAA (double strand) [8-mer GATGATAA]”, the binding signal (PBM E-score (-0.5 to 0.5)) in data set [2] was 0.488. On the same count and under the same terms, as for “ATGACAAA (double strand) [8-mer ATGACAAA]”, the figure is 0.493.

For “CGACTACA (double strand) [8-mer CGACTACA]”, the binding signal (PBM E-score (-0.5 to 0.5)) in [4] is 0.487. In data set [3], “CACAGCTG (double strand) [8-mer CACAGCTG]” registered a binding signal (PBM E-score (-0.5 to 0.5)) of 0.475. On the same count and under the same terms, as for “ACAGCTGT (double strand) [8-mer ACAGCTGT]”, the figure is 0.496. As to “AGTCACAC (double strand) [8-mer AGTCACAC]”, the binding signal (PBM E-score (-0.5 to 0.5)) in [5] amounted to 0.489; in [6] it was 0.48; in data set [7], 0.49. Sequence “GCCCCCCA (double strand) [8-mer GCCCCCCA]” returned a binding signal (PBM E-score (-0.5 to 0.5)) in data set [1] of 0.487.

Turning to “GCTACAAA (double strand) [8-mer GCTACAAA]”, the binding signal (PBM E-score (-0.5 to 0.5)) in [4] was determined as 0.489; in data set [8] it was 0.462; in data set [9] it was 0.482. For “AAGTCACA (double strand) [8-mer AAGTCACA]”, the binding signal (PBM E-score (-0.5 to 0.5)) was 0.494 in [5], 0.498 in data set [6] and 0.496 in data set [7]. On to “AATGTCAT (double strand) [8-mer AATGTCAT]”, for which, in data set [2], the binding signal (PBM E-score (-0.5 to 0.5)) worked out at 0.487. The same measure, in the same setting: to “AGTCATCA (double strand) [8-mer AGTCATCA]” belongs 0.491.

On to “ATGATGAC (double strand) [8-mer ATGATGAC]”, for which, in data set [2], the binding signal (PBM E-score (-0.5 to 0.5)) stood at 0.497. For “GTCACAAA (double strand) [8-mer GTCACAAA]”, the values for the binding signal (PBM E-score (-0.5 to 0.5)) in [5], in data set [6] and in data set [7] were 0.48, 0.497 and 0.498, respectively.

For “ACCAGCTG (double strand) [8-mer ACCAGCTG]”, in data set [3], the binding signal (PBM E-score (-0.5 to 0.5)) amounted to 0.456.

Sequence “GGCCCCCC (double strand) [8-mer GGCCCCCC]” came in with a binding signal (PBM E-score (-0.5 to 0.5)) in data set [1] of 0.498. “ACAGATGT (double strand) [8-mer ACAGATGT]” displayed a binding signal (PBM E-score (-0.5 to 0.5)) in data set [3] of 0.478. For “AGCCCCCC (double strand) [8-mer AGCCCCCC]”, in data set [1], the binding signal (PBM E-score (-0.5 to 0.5)) came out at 0.491. In data set [1], “ATGGCCCC (double strand) [8-mer ATGGCCCC]” gave a binding signal (PBM E-score (-0.5 to 0.5)) of 0.487. Sequence “TGATGACA (double strand) [8-mer TGATGACA]” returned a binding signal (PBM E-score (-0.5 to 0.5)) in data set [2] of 0.495.

Consider “ACATATGT (double strand) [8-mer ACATATGT]”, for which the binding signal (PBM E-score (-0.5 to 0.5)) in [3] stood at 0.476.

Take “GGGGCCTA (double strand) [8-mer GGGGCCTA]”: the binding signal (PBM E-score (-0.5 to 0.5)) in data set [1] is 0.487. In turn, “TGACTACA (double strand) [8-mer TGACTACA]” yielded a binding signal (PBM E-score (-0.5 to 0.5)) in data set [4] of 0.491. “AACAGCTG (double strand) [8-mer AACAGCTG]” returned a binding signal (PBM E-score (-0.5 to 0.5)) in data set [3] of 0.481.

For the sequence “CGGCTACA (double strand) [8-mer CGGCTACA]”, the binding signal (PBM E-score (-0.5 to 0.5)) in data set [4] is 0.488. With “CAGCTGTC (double strand) [8-mer CAGCTGTC]”, in data set [3], the binding signal (PBM E-score (-0.5 to 0.5)) came to 0.479. On to “AAGGGGCC (double strand) [8-mer AAGGGGCC]”, for which the binding signal (PBM E-score (-0.5 to 0.5)) in [1] was determined as 0.487. On the same count and under the same terms, as for “AGGCCCCC (double strand) [8-mer AGGCCCCC]”, the figure is 0.495. For the sequence “AGGATGAC (double strand) [8-mer AGGATGAC]”, the binding signal (PBM E-score (-0.5 to 0.5)) in data set [2] was determined as 0.489.

In data set [2], “ATATCATC (double strand) [8-mer ATATCATC]” gave a binding signal (PBM E-score (-0.5 to 0.5)) of 0.485.

Consider “AGACTACA (double strand) [8-mer AGACTACA]”, for which the binding signal (PBM E-score (-0.5 to 0.5)) in data set [4] was 0.486; in [9], 0.487.

On to “GGCTACAA (double strand) [8-mer GGCTACAA]”, for which the binding signal (PBM E-score (-0.5 to 0.5)) worked out at 0.492 in data set [4] and 0.467 in data set [8]. “TGGCTACA (double strand) [8-mer TGGCTACA]” registered a binding signal (PBM E-score (-0.5 to 0.5)) in [4] of 0.48. “AGTCACAA (double strand) [8-mer AGTCACAA]”: the binding signal (PBM E-score (-0.5 to 0.5)) in [5] is 0.489; in data set [6], 0.497; in data set [7], 0.498. In data set [2], “GATGACAA (double strand) [8-mer GATGACAA]” registered a binding signal (PBM E-score (-0.5 to 0.5)) of 0.498. Take “ACTACAAT (double strand) [8-mer ACTACAAT]”: the binding signal (PBM E-score (-0.5 to 0.5)) turned out to be 0.49 in data set [4], 0.49 in [8] and 0.488 in data set [9]. Take “AGGTCACA (double strand) [8-mer AGGTCACA]”: the binding signal (PBM E-score (-0.5 to 0.5)) in data set [5] came to 0.486; in data set [6], 0.455; in [7], 0.486.

“AAGGCCCC (double strand) [8-mer AAGGCCCC]” displayed a binding signal (PBM E-score (-0.5 to 0.5)) in data set [1] of 0.489. In turn, “AGGCTACA (double strand) [8-mer AGGCTACA]” came in with a binding signal (PBM E-score (-0.5 to 0.5)) in [4] of 0.488. For “GGATGACA (double strand) [8-mer GGATGACA]”, the binding signal (PBM E-score (-0.5 to 0.5)) in data set [2] was 0.489. With “GGGGGCCA (double strand) [8-mer GGGGGCCA]”, the binding signal (PBM E-score (-0.5 to 0.5)) in data set [1] was found to be 0.495. The same measure, in the same setting: to “CGGGGGGC (double strand) [8-mer CGGGGGGC]” belongs 0.487. Take “GACTACAC (double strand) [8-mer GACTACAC]”: the values for the binding signal (PBM E-score (-0.5 to 0.5)) in data set [4] and in data set [9] were 0.49 and 0.484, respectively.
